Assay results taken from patent US20170204167A1.

B1: FI28 variant 1 (antibody, V domains shown)
VH: EVQLVESGGGAVQPGESLKLSCAASGFTFSNYGMHWVRQAPGKGLEWVAVISYDGSNKYYADSVKGRFTISRDNSKDTLYLQMNSLRAEDTALFYCAKERPLRLLRYFDWLSGGANDYWGQGTLVTVSS
VL: DIVMTQSPDSLAVSLGERATINCKSSQSVLYSSNNKNYLAWYQQKPGQPPKLLIDWASTRESGVPDRFSGSGSGTDFTLTISNLQVEDVAVYYCQQYYRSPSFGQGTKLEIK
B2: FI6 variant 2 (antibody, V domains shown)
VH: QVQLVQSGGGVVQPGRSLRLSCVASGFTFSTYAMHWVRQAPGRGLEWVAVISYDGNYKYYADSVKGRFSISRDNSNNTLHLEMNTLRTEDTALYYCAKDSQLRSLLYFEWLSQGYFDPWGQGTLVTVTS
VL: DIQMTQSPDSLAVSLGARATINCKSSQSVTFNYKNYLAWYQQKPGQPPKVLIYWASARESGVPDRFSGSGSGTDFTLTISSLQAEDVAVYYCQQHYRTPPTFGQGTKVEIK

Tests used:
[1] = target: HA of H3N2 A/Brisbane/10/07 (influenza A virus H3N2 A/Brisbane/10/07); test: ELISA on HA
[2] = target: HA of B/Ohio/1/05 (influenza B virus B/Ohio/1/05); test: ELISA on HA
[3] = target: HA of H1N1 A/Brisbane/59/07 (influenza A virus H1N1 A/Brisbane/59/07); test: ELISA on recombinant or purified HA
[4] = target: HA of H3N2 A/Brisbane/10/07 (influenza A virus H3N2 A/Brisbane/10/07); test: ELISA on recombinant or purified HA
[5] = target: HA of H3N2 A/New York/55/04 (influenza A virus H3N2 A/New York/55/04); test: ELISA on recombinant or purified HA
[6] = target: HA of H3N2 A/Wyoming/3/03 (influenza A virus H3N2 A/Wyoming/3/03); test: ELISA on recombinant or purified HA

Binder	Binding to HA by ELISA (% of subtype specific control antibodies) [1]	EC50 [2]	EC50 [3]	EC50 [4]	EC50 [5]	EC50 [6]
B1	1.3%					
B2	68.5%	> 20 µg/mL	0.015 µg/mL	0.041 µg/mL	0.032 µg/mL	0.019 µg/mL
